Consider 41 sequences from the nanobody polyreactivity screen of Harvey et al. (2022).

This series is described as follows: yeast display, Sf9 membrane polyspecificity reagent, FACS + sequencing; frameworks hold sequencing errors. A digest of the protocol:
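Using colony PCR, genes from sorted yeast display clones were amplified, then sequenced on MiSeq at 2 × 250 and filtered by CDR length. The clones had been stained with 10% biotinylated, detergent-solubilized Sf9 membrane reagent for 1 hour at 4 °C and sorted by FACS into low and high (top ~1%) gates on anti-HA and streptavidin fluorescence. Polyreactivity labels come from the gate of origin.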
For the sequence “QVQLVESGGGLFQAGVSLRLSCAASGSTIGVNAMGWSRKAPGKERELVAAISRGGGRTYYADSVKWRFTISRDIAKKTVYLQMICLKPEDTAVYYCNTDFGARMGYWGQGTEVTVSS”, the “polyreactivity (PSR sort gate)” value is “high polyreactivity”. The same measure for “QVQLVESGGGLFQARGSLRLSCAASGLTFWYYDMGWYRQAPGKERELFAAINSGGSTYYADSEKGRFTISRDNAKNTVYLEINRLKPEDTAVYYCNKDFSKTWRYASYYYWGQGTQVTVSS”: “low polyreactivity”; for “QVQLVESGGGLFQEGGSLRLSCAASGSIFNGYAMGWYRQAPGKEREFVDAITFSATSTYYADSVKRRFTLSRDNAKNTVYLQMNSLKPEDTAVYYCAVAVPLSRYWWRRTYDYWGQGTQVTVSS”: “low polyreactivity”; for “QVQLVESGGGLFQEGGSLRLSCAASGSTFSVNAMGWYRQAPGKERELVAAISKRVGSTYYADSVKGRFTISRDNAKNTVYLQMNSLKPEDTAVYYCAAVIVHYGRAYDYWGQGTQVTVSS”: “high polyreactivity”. As to “QVQLVESGGGLGQAGGSLRLSCAASGFIFGSYAMGWYRQAPGKARELVAAISWSGASTYYADSVKGRFTISRDNAKKTVYLQMNSLIPEDTAVYYCAAVSRYGWYDYWGQGTQVTVSS”, the “polyreactivity (PSR sort gate)” value was “high polyreactivity”. The same measure for “QVQLVESGGGLGQAGGSLRLSCAASGFIFVWYAMGWYRQAPGKERELVAAINWSGGHTYYADSVKGRFTISRDNSKNTVYLQMNSLKPEDTAVYYWNADSLWYWFYPYNYWGQGTQVTVSS”: “low polyreactivity”. The entry for “QVQLVESGGGLGQAGGSLRLSCAASGFTFSSNAMGWYRQAPGNERALVAAISGNGGITYYADSVKGRFTISRDNAKNTVYLQMNCLKPEDTAVDYCAAEAYRYAWYDYWGQGTQVTVSS” is “high polyreactivity”; for “QVQLVESGGGLGQAGGSLRLSCAASGFTYYYYAMGWYIQAPRKDRELVAAISGGGGSTYYADSVKGRFTLSRDNAKNTVYLQMNSLKQVDTAVYYCAAVGSWRYYYDYDYWGQGTQVNVSS” it is “high polyreactivity”; for “QVQLVESGGGLGQAGGSLRLSCAASGLTFTKNVMGWSSQAPGKERELVAVISRSGGSTYYADSVKGRFTISRDNAKNTVYLQMISLKPEDTAVYYCNVKGPGPSRGNYWGQGTQVTVSS” it is “low polyreactivity”. The entry for “QVQLVESGGGLGQAGGSLRLSCAASGRIFRYNAMGWYRQAPGKERELVAAITSGTGTNYADSVKGRFTISRDNAKNTVYLQMNSLKPEDTAVYYCNKVRKSYRYDYWGQGTQVTVSS” is “low polyreactivity”; for “QVQLVESGGGLGQAGGSLRLSCAASGRIFVGYAMGWYRQAPGKERELVAAIDVGGGSTYYADSVKGRFTISRDNAKNTVYLQMNSLKPEDTAVYYCAADAFGWSSYWPYDYWGQGTQVTVSS” it is “low polyreactivity”; for “QVQLVESGGGLGQAGGSLRLSCAASGRIFYSYAMGWSRQAPGKESELVAAITESGGSTNYADSVKGRFTISRDNAKNTVYLQMNSLNPEDTAVFYCNARYKLTFNLYNYWGQGTQVTVSS” it is “low polyreactivity”. Consider “QVQLVESGGGLGQAGGSLRLSCAASGRTFRYYAKGWYRQAPGKERELVAAINRGGSTSYADSVKGRFTISRDNAKNTVYLQMNSLKPEDTAVYYCNVDKYRLVGFHSPYDYWGQGTQVTVSS”, for which the “polyreactivity (PSR sort gate)” value is “high polyreactivity”. The same measure for “QVQLVESGGGLGQAGGSLRLSCAASGSIFSSYAMGWYRQAPGKERELVAAISQSGGDTYYADSVKGRFTISRDNAKNTVYLQMNSLKPEDTAVYYSAASVWYYPMDYWGQGTQVTVSS”: “low polyreactivity”; for “QVQLVESGGGLGQAGGSLRLSCAASGSTFGRYVMGWYRQAPGKERELVAAISKNSGSTYYAYSVKGRFTISRDNAKNTVYLQMNSLKPEDTAVYYCAADWRSKGYDSLGQGTQVTVSS”: “high polyreactivity”; for “QVQLVESGGGLIQAGGSLRLSCAASGSILSDYVMAWYRQAPGKERELVAAITNDDSTNYADSVKGRFTISRDNAKNTVYLQMNSLKPEETAVYYCAAEWLVVYYISTGESYKVEFDYCGQGTQVTVSS”: “low polyreactivity”. The entry for “QVQLVESGGGLLKAGGSLRLTCAASGRIFSSYDMGWYRQAPGKERELVAAISNSGGNTYYADSVKGRFTISRDNAKNTVYLQMNSLKPEDTAVYYCAAVAFWAIFDFYWYYPYEYDYWGQGTQVTVSS” is “high polyreactivity”. Regarding “QVQLVESGGGLLKAGRSLRLSCAASGRIFGYYAMGWYRQAPGKERELVAAISTGGGRTYYADSVKGRFTISRDNAKNTVYLQMNSLKPEDTAVYYCAARLKWGWPTYDYWGQGTQVTVSS”, the “polyreactivity (PSR sort gate)” value was “high polyreactivity”. The same measure for “QVQLVESGGGLLQAAGSLRLSCAASGIIFHIYAMGWYRQAPGKERELVAAISTGSSTYYADSVKGRFTISRDNAKNTVYLQMKSLKPEDTAVYYCNAVSRLLWVKGFDYWGQGTQVTVSS”: “low polyreactivity”; for “QVQLVESGGGLLQAGGSLRISCAASVSIFYHYAMGWYRQAPGKERELVAAISWRGGSTNYADSVKGRFTISRDNAKNTVYLQMNSLKPEDSAVYYCNAVQRRREYYWGQGTQVTVSS”: “high polyreactivity”; for “QVQLVESGGGLLQAGGSLRLSCAASGIFGRYAMGWYRQAPGKERELVAGISWSGVRTYYADSVKGRFTISRDNAKNTVYLQINSLKPEDTSVYYCPARPWNDGYYVGRFHMDYWGQGTQVTVSS”: “low polyreactivity”. The entry for “QVQLVESGGGLLQAGGSLRLSCAASGIIFRGYSMGWYRPAPGKERELVASITRRGGSTRYADSVKGRFTISRDNAKNTVYLQMNSLKPEDTPVYYCAAVGVGKTSTAYGYWGQGTQVNVSS” is “high polyreactivity”.

Turning to “QVQLVESGGGLLQAGGSLRLSCAASGITFGRNTMGWYRQAPGKERELVAAINSGGSTTYADSVKGRFTISRDNAKNTVYLQMISLKPEDSAVYYCNKSSTGWTATYDYWGQGTQVTVSS”, the “polyreactivity (PSR sort gate)” value is “low polyreactivity”. With “QVQLVESGGGLLQAGGSLRLSCAASGITFRFYAMGGYRQAPGKEREFVAAISCRGGRTYYADSVKGRFTISRDNAKNTVYIQMNSLKPEDTAVYYCAADFYYRTVATVTSVARYDYWGQGTQVTVSS”, the “polyreactivity (PSR sort gate)” value is on record as “high polyreactivity”. The entry for “QVQLVESGGGLLQAGGSLRLSCAASGNIFGWYAMGWYRQAPGKERELVAAISSGGRTNYADSVKGRFTISRDNAKNTVYLQMNSLKPEDTAVYYCATPLQQLYGYWGQGTQVSVSS” is “low polyreactivity”. The entry for “QVQLVESGGGLLQAGGSLRLSCAASGPTFAYYAMGWYRQATGKERELVAAIDSSGGSTYYADSVKGRFTISRDNSNNSVYLQMNSLKPEDTAVNYCAASYPYDRYDQGGFGYWGQGTQVTVSS” is “low polyreactivity”; for “QVQLVESGGGLLQAGGSLRLSCAASGRIFGGYDMGWYRQAPGKERELVASISYSGGTTYYADSVKGRFTISRDNAKNTVYLQMNSLKPEDSAVYYCAALSQHNDSGYDYWGQGTQVTVSS” it is “high polyreactivity”; for “QVQLVESGGGLLQAGGSLRLSCAASGRIFSFNTMGWYRQAPGKERELVAAISRGGSTYYADSVKGRFTNSRDNAKNTVYLQMNSMKPEDTAVYYCNALLPPGSRKYNYWGQGSQVTVSS” it is “high polyreactivity”. Turning to “QVQLVESGGGLLQAGGSLRLSCAASGRTFETNAMGWNRQAPGKQRELVASINWSGGSTYYADSVKGRFTISRDNAKNSVYLQMNSLKPEDTAVYYCAADHSYWDWWSYYYWGQGTQVTVSW”, the “polyreactivity (PSR sort gate)” value is “low polyreactivity”. The same measure for “QVQLVESGGGLLQAGGSLRLSCAASGRTFNYYAMGWYRQAPWKESELVADIRGRGGSTYYADSVKGRFTISRDNAKITVYLQMNSLKPEDKAVYYCARRSPYPYSIYYYWGQGTQVTVSS”: “high polyreactivity”; for “QVQLVESGGGLLQAGGSLRLSCAASGRTFRYYAMGWYRQAPGKERELVAAISSGGSSTYYADSVKGRFTISRDNAKNTVYLQMNSLKPEDTAVYYCAAGYYPFNYWGQGTQVTVSS”: “high polyreactivity”.

Turning to “QVQLVESGGGLLQAGGSLRLSCAASGRTFRYYTMGWYRQAPGKEREFVAAISSTGRTYYGDSVKGRFTISRDNAKNTVYLQMNSLKPEDTAVYYCAATFIQVVVNVQLYDYDYWGQGTQVTVSS”, the “polyreactivity (PSR sort gate)” value is “low polyreactivity”. For “QVQLVESGGGLLQAGGSLRLSCAASGRTFSVNAMGWYRQAPGKERELVATITWSGSSTSYADSVKGRFTISRDNAKNTVDLQMNSLKPEDTAVYYCAADLWTLIYLTDTYGHWGQATQVTVSS”, the “polyreactivity (PSR sort gate)” value was “low polyreactivity”. Turning to “QVQLVESGGGLLQAGGSLRLSCAASGRTSDYYAMGWYRQAPGKERELVAAISRSGGRTYYADSVKGRFTISRDNAKNSVYFQMNSLQPEDTAVYYCNAGGTPYVLDEYWGQGTQVTVSS”, the “polyreactivity (PSR sort gate)” value is “high polyreactivity”. The same measure for “QVQLVESGGGLLQAGGSLRLSCAASGRTSGRYAMGWYRQAPGKERELVAAISSGGRTSYADSVKGRFTISRDNAQNTVDLQMISLKPEDTAVYYCAAVFVLARAYNYWGQGTLVTVSS”: “high polyreactivity”. The entry for “QVQLVESGGGLLQAGGSLRLSCAASGSIFPDYAKGSYRQAPGKERELVAAITGIDGSTYADSVKGRFTISRVHAKNSVYLQINRLKPEDTAVYYCNTESIRYVPWFRFDYWGQGTQVTVSS” is “low polyreactivity”; for “QVQLVESGGGLLQAGGSLRLSCAASGSIFRRYAMGWYRQATGKERELVAAISRSGSSTYADSVKGRFTISRDNAKNTVYLQMNSLKPEDTAVYYCAASYAFLYYGYDSWGHGTQVTVSS” it is “low polyreactivity”. Take “QVQLVESGGGLLQAGGSLRLSCAASGSIFSGYAMGWYRQAPGKERELVAAISGSGGSTFYADSVKGRFTISRDNAKNTVYLQMNSLKPEDTAVYYCAARRIAPYGRYDYWGQGTQVTVSS”: the “polyreactivity (PSR sort gate)” value is listed as “low polyreactivity”.

Regarding “QVQLVESGGGLLQAGGSLRLSCAASGSTFDIYAMGWYRQAPGKERELVAVISGGDGSTYYADSVKGRFTISRENAKNTVYLQMNSLKPEDTAVYYCAADDISPGYWDGEYDCWGQGTQVTVSS”, the “polyreactivity (PSR sort gate)” value was “low polyreactivity”.

For the sequence “QVQLVESGGGLLQAGGSLRLSCAASGSTFDYYVMGWYRQAPGKERELVAAISHNAGSTYYADSVKGRFTISRDNAKNTVYLQMNSLKPEDTAVYYCAAPDYRNGVRYPLDYWGQGTQVTVSS”, the “polyreactivity (PSR sort gate)” value is “low polyreactivity”. The entry for “QVQLVESGGGLLQAGGSLRLSCAASGSTFSSYAMGWYRPAPGKERELVAAITSSGGSTYYADSVKGRFTISRDNAKNTVYLKLNSLKPEDTAVYYCAAADVIFWLYYYWGQGTQVTVSS” is “low polyreactivity”.
